One substance from article doi:10.1101/2021.06.02.446795 can be followed below.

In the experiment the target is HMPV nucleoprotein N (strain CAN97-83), full-length, N-RNA rings (human metapneumovirus (strain CAN97-83)). Briefly: SEC.

Take “HMPV nucleoprotein N (strain CAN97-83), full-length, N-RNA rings (natural protein)”: the stoichiometry N amounted to 10.

One may read the stoichiometry N as a count of units in the complex or per binding partner.
